From US20090142273A1, “Activatable cest MRI agent” (CASE WESTERN RESERVE UNIVERSITY, priority 2006, published 2009)

Tests used:
caspase-3 [1] = biological target: T1, caspase-3 (Homo sapiens, UniProt P42574); assay: MR parametric map of DEVD-(Tm-DOTA) amide before and after reaction with caspase-3; format: biochemical; settings: saturation at −51 ppm vs +51 ppm, 9.4 T, 37° C., pH 7.4
T1 sequence (P42574 29-175 limits assumed): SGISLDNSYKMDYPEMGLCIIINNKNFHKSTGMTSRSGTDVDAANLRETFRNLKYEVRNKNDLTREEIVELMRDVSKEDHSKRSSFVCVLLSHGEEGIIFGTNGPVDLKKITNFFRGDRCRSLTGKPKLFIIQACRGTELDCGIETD
T1 sequence (P42574 176-277 limits assumed): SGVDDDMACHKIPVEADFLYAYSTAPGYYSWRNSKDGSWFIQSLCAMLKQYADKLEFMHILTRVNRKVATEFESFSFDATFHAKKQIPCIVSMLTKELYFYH
Experimental: FIG. 16 illustrates […] spectra 998 and MR parametric map 999 of DEVD-(Tm-DOTA) amide 155 before and after adding caspase-3. […] spectra were acquired at 37° C. and pH 7.4 with a continuous wave saturation pulse applied at 31 μT for 4 seconds. The deconvoluted […] spectrum of the product after reaction, showing a […] effect at +8 ppm, is also shown. MR images were acquired at 37° C. and pH 7.4 with a Bruker Biopsin 9.4 T MR scanner. A MSME T1 method was used with TR/TE=1623/10.9 ms and a train of Gaussian-shaped saturation pulses applied at 25 μT for 1.106 s, and with saturation offsets at −51 ppm and +51 ppm. The parametric map was obtained by subtracting the MR image with a saturation offset at −51 ppm from the MR image with saturation offset at +51 ppm. The magnitude of the scale of the original MR images was used as the scale for this parametric map, to properly represent the difference in MRI contrast obtained with different saturation offsets. The […] spectrum of 155 (25 mM, pH 7.4) was recorded by applying selective saturation in 1 ppm increments from +100 ppm to −100 ppm. A […] effect was detected at −51 ppm, which was assigned to the amide most proximal to the lanthanide ion in 155, based on identical results obtained from a similar compound, Tm3^+-DOTAMGly. […] This asymmetry was analyzed by deconvolution to show a […] effect at +8 ppm. […]

caspase-3 [2] = biological target: T1, caspase-3; assay: […] spectra of DEVD-(Tm-DOTA) amide before and after adding caspase-3; format: biochemical
Text: In one embodiment, the caspase-3 substrate DEVD (Asp-Glu-Val-Asp) was elongated using the amino group on one side arm of lanthanide ligand anchored on the polymer support. FIG. 9 illustrates the conversion of the DEVD-(Ln-DOTA) 90 to amino-(Ln-DOTA) 92 through cleavage by caspase-3. […] Accordingly, the enzymatic activity of caspase-3 can be detected by the change in […] effect caused by this biotransformation.
FIG. 16 illustrates […] spectra 998 and MR parametric map 999 of DEVD-(Tm-DOTA) amide 155 before and after adding caspase-3. […] spectra were acquired at 37° C. and pH 7.4 with a continuous wave saturation pulse applied at 31 μT for 4 seconds. The deconvoluted […] spectrum of the product after reaction, showing a […] effect at +8 ppm, is also shown. MR images were acquired at 37° C. and pH 7.4 with a Bruker Biopsin 9.4 T MR scanner. A MSME T1 method was used with TR/TE=1623/10.9 ms and a train of Gaussian-shaped saturation pulses applied at 25 μT for 1.106 s, and with saturation offsets at −51 ppm and +51 ppm. The parametric map was obtained by subtracting the MR image with a saturation offset at −51 ppm from the MR image with saturation offset at +51 ppm. The magnitude of the scale of the original MR images was used as the scale for this parametric map, to properly represent the difference in MRI contrast obtained with different saturation offsets. The […] spectrum of 155 (25 mM, pH 7.4) was recorded by applying selective saturation in 1 ppm increments from +100 ppm to −100 ppm. A […] effect was detected at −51 ppm, which was assigned to the amide most proximal to the lanthanide ion in 155, based on identical results obtained from a similar compound, Tm3^+-DOTAMGly. After 48 nM of caspase-3 was added and the mixture was incubated at 37° C. and pH 7.4 for 1 hour, the […] effect at −51 ppm was decreased and an asymmetrical shape in the […] spectrum was observed near water. This asymmetry was analyzed by deconvolution to show a […] effect at +8 ppm.

## DEVD-(Tm-DOTA) amide [compound 155]
caspase-3 [1]
  change in water MR signal after reaction with caspase-3: no significant change
  decrease in water MR signal due to the PARACEST effect before the enzymatic reaction: ~14.5%
caspase-3 [2]; 48 nM caspase-3, 37° C., pH 7.4, 1 hour
  change of PARACEST effect at −51 ppm after caspase-3: decreased
caspase-3 [2]; 48 nM caspase-3, 37° C., pH 7.4, 1 hour, by deconvolution
  PARACEST effect after cleavage by caspase-3 (free amine): +8 ppm
caspase-3 [2]; before caspase-3, 25 mM, pH 7.4, 37° C., 31 μT for 4 seconds
  PARACEST effect, MR saturation frequency of amide: −51 ppm
